The text below walks through data of patent US8703698B2, “Compositions and methods for treating atherosclerosis” (The University of Chicago, priority 2003, dated 2014).

In one data set the test system is J774 macrophages. As to the kind of experiment: Cholesterol efflux from cholesterol-laden J774 macrophages to apolipoprotein liposomes with 8-bromo-cAMP or methyl-β-cyclodextrin. The data set is classed as cell-based, mouse. An excerpt:
The export process of cholesterol is coupled to the ATP binding cassette transporter (ABCA1) pathway. Lipid efflux to apolipoproteins has been shown previously to be stimulated by treatment of murine macrophages with cAMP analogues (Lin et al. 2002 Biochem Biophys Res. Commun. 290:663-669; Oram et al. 2000 J. Biol. Chem. 275:34508-34511). Also, the expression of ABCA1 is induced by cAMP treatment (Lin et al. 2002 Biochem Biophys Res. Commun. 290:663-669; Oram et al. 2000 J. Biol. Chem. 275:34508-34511). The inventors herein examined the effect of 8-bromo-cAMP (0.3 mM) on cholesterol efflux by liposomes containing various apolipoproteins when incubated with cholesterol-laden J774 macrophages. Such cells were pre-labeled with [^3H]-cholesterol in the presence of Sandoz 58-035, an ACAT inhibitor, to ensure that all of the radiolabeled cholesterol released from the cells was derived from the un-esterified cholesterol pool, and the cells were treated for 12 hours with 8-bromo-cAMP. This was followed by incubation with various acceptors. The fractional release of cellular labeled cholesterol was determined as a function of time.
To investigate whether an apolipoprotein free cholesterol acceptor such as cyclodextrin has the ability to catalyze the removal of cholesterol from macrophages, cholesterol-loaded and labeled J774 cells were incubated with liposomes and methyl-β-cyclodextrin (0.1 mM) (CD).
To examine whether cholesterol export from J774 cells to medium containing liposomes containing 2 μM murine apoA-1, SAA1.1 or SAA2.1 is a cAMP-dependent process, the radio-labeled cholesterol-laden cells were incubated overnight with 8-Br-cAMP (0.3 mM), prior to the addition of liposomes containing 2 μM murine apoA-1, SAA1.1 or SAA2.1 to the culture medium. Cholesterol efflux to the medium was then determined at the indicated time points as described above. Efflux of radioactive label to the medium was calculated as a percentage of total counts in each well.

Data set [1] addresses T1, acyl CoA:cholesterol acyl transferase (Mus musculus, UniProt Q61263).
T1 construct: The relative activity of acyl CoA:cholesterol acyl transferase was determined in cholesterol-laden cells; host or cells: J774 mouse macrophages, cholesterol-loaded
T1 sequence (Q61263 1-540): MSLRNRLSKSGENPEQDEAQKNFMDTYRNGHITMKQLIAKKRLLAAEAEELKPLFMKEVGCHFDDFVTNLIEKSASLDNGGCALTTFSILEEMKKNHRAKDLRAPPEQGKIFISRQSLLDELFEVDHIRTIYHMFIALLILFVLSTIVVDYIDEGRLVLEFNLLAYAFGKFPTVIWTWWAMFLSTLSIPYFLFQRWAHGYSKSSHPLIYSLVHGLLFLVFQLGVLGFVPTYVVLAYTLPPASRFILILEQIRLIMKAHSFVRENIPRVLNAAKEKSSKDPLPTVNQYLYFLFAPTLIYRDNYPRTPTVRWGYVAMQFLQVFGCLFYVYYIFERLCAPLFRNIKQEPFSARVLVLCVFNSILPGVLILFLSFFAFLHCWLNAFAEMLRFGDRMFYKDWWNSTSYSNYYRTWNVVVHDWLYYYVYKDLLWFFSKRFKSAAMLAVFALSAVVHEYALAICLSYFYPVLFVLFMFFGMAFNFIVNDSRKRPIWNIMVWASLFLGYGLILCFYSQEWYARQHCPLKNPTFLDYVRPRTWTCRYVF
The following applies: intact murine macrophages and post-nuclear homogenates; Ely et al. 2001; cited from earlier work.

For data set [2], the target named is T1, acyl CoA:cholesterol acyl transferase. As to the kind of experiment: ACAT activity in macrophage post-nuclear homogenates. The data set is classed as biochemical, murine. The following applies: macrophage post-nuclear homogenates as enzyme source. An excerpt: The in vitro effects of acute phase-HDL (AP-HDL;HDL-SAA) on acyl CoA:cholesterol acyl transferase and cholesterol ester hydrolase activities and on cellular cholesterol export were studied by the inventors using purified enzymes, cell homogenates, and whole cells. […] In contrast, murine SAA1.1 and apoA-1 had no effect. […] Using macrophages preloaded with radio-labeled cholesterol and injected intravenously into either inflamed or un-inflamed mice, it was shown that the inflamed mice, which have high SAA2.1 levels, effluxed cholesterol more rapidly and to a greater extent (6-fold greater) than their un-inflamed counterparts.

B1: GFFSFVHEAFQGAGDMWRAYTDMKEANWKNSDKYFHARGNYDAAQRGPGGVWAAEKISD GREAFQEFFGRGHEDTIADQEANRHGRSGKDPNYYRPPGLPDKY (protein, listed as Mus musculis)
chain: GFFSFVHEAFQGAGDMWRAYTDMKEANWKNSDKYFHARGNYDAAQRGPGGVWAAEKISDGREAFQEFFGRGHEDTIADQEANRHGRSGKDPNYYRPPGLPDKY
notes: full length murine serum amyloid A isoform 2.1 purified from acute phase plasma
For B1, the “increase in the initial rate of cholesterol efflux to liposomes after cAMP pre-treatment versus untreated cells” value in the data set with J774 macrophages (8-bromo-cAMP 0.3 mM, 12 hours, Sandoz 58-035 present) is reported as 62.1%. For the same molecule, the “further increase in cholesterol efflux by cAMP pre-treatment” value in the data set on J774 macrophages (cells exposed to liposomes and CD) came to 45.5%. For the same molecule, the “increase in the initial rate of cholesterol efflux with CD treatment” value with J774 macrophages (methyl-β-cyclodextrin 0.1 mM plus liposomes) was 4 fold. Also, the “macrophage ACAT activity” value in data set [1] is recorded as “inhibit macrophage acyl CoA:cholesterol acyl transferase (ACAT) activity”. Also, in data set [2], the “acyl CoA:cholesterol acyl transferase activity” value is reported as “inhibit acyl CoA:cholesterol acyl transferase activity in a dose-dependent manner”.
